We go through two molecules from article PMC7382241 (2020).

A word on the Kd: it is the free concentration of one partner at which half of the binding sites on the other are occupied at equilibrium, for simple one-to-one binding. Lower therefore signals a tighter complex.

The target in the experiment is N-terminal AVI-tagged and biotinylated FKBP12 (human, UniProt P62942 1-108, biotin (biotinylated AVI tag)). The experiment can be described thus: SPR. (In general: In SPR one partner is held on a chip, and binding of the other changes the refractive index at the surface.)

“And” between values parts separate entries of the source, which are not always exact repeats. Equal entries are not always repeated.

N-terminal AVI-tagged and biotinylated FKBP12, sequence (P62942 whole entry): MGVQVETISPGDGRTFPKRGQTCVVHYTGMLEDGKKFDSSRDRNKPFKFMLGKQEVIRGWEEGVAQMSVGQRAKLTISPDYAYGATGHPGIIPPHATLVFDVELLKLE

B1: recombinant CEP250_(29.2) (residues 1,981 to 2,281) (domain or fragment)
chain: EQHLLEQAELSRSLEASTATLQASLDACQAHSRQLEEALRIQEGEIQDQDLRYQEDVQQLQQALAQRDEELRHQQEREQLLEKSLAQRVQENMIQEKQNLGQEREEEEIRGLHQSVRELQLTLAQKEQEILELRETQQRNNLEALPHSHKTSPMEEQSLKLDSLEPRLQRELERLQAALRQTEAREIEWREKAQDLALSLAQTKASVSSLQEVAMFLQASVLERDSEQQRLQDELELTRRALEKERLHSPGATSTAELGSRGEQGVQLGEVSGVEAEPSPDGMEKQSWRQRLEHLQQAVAR
On to B1, for which the Kd was 37.6 nM and 23.4 nM and 57.7 nM.

B2: CEP250_(11.4) (residues 2,134 to 2,231) (domain or fragment)
chain: MEEQSLKLDSLEPRLQRELERLQAALRQTEAREIEWREKAQDLALSLAQTKASVSSLQEVAMFLQASVLERDSEQQRLQDELELTRRALEKERLHSPG
Take B2: the equilibrium dissociation constant (Kd) is 32.5 nM and 32.7 nM and 41.2 nM.
